Key:
[1] = target: Rag GTPase heterodimer (RagA-RagC), wild type (human) (UniProt Q7L523)
[2] = target: Rag GTPase heterodimer (RagA-RagC), wild type (human) (UniProt Q7L523); remark: listed apart in the source
[3] = target: RagA-RagC(D201R, D205K) (human) (UniProt Q7L523)
[4] = target: RagA-RagC(D205K) (human) (UniProt Q7L523)
[5] = target: RagA-RagC(D201R) (human) (UniProt Q7L523)
[6] = target: RagA-RagC(D201A) (human) (UniProt Q7L523)
[7] = target: RagA-RagC(D201A, D205A) (human) (UniProt Q7L523)
[8] = target: RagA-RagC(D205A) (human) (UniProt Q7L523)

KM of GATOR1-stimulated multiple turnover GTP hydrolysis, fold increase against GATOR1[Depdc5(Y775A)] (fold increase) [1]	kcat of GATOR1-stimulated multiple turnover GTP hydrolysis, fold decrease against GATOR1[Depdc5(Y775A)] (fold decrease) [1]	kcat/KM of GATOR1-stimulated multiple turnover GTP hydrolysis, fold decrease against GATOR1[Depdc5(Y775A)] (fold decrease) [1]	kcat of GATOR1-stimulated single turnover GTP hydrolysis by the Rag GTPase heterodimer (singly loaded with GTP) [2] [s⁻¹]	kcat of GATOR1-stimulated multiple turnover GTP hydrolysis by the Rag GTPase heterodimer (dual-loaded with GTP) [1] [s⁻¹]	kcat/KM of GATOR1[Depdc5(Y775A)]-stimulated multiple turnover GTP hydrolysis, fold decrease against wild-type Rag GTPases (fold decrease) [3]	kcat/KM of GATOR1[Depdc5(Y775A)]-stimulated multiple turnover GTP hydrolysis, fold decrease against wild-type Rag GTPases (fold decrease) [4]	kcat/KM of GATOR1[Depdc5(Y775A)]-stimulated multiple turnover GTP hydrolysis, fold decrease against wild-type Rag GTPases (fold decrease) [5]	kcat/KM of GATOR1[Depdc5(Y775A)]-stimulated multiple turnover GTP hydrolysis, fold decrease against wild-type Rag GTPases (fold decrease) [6]	kcat/KM of GATOR1[Depdc5(Y775A)]-stimulated multiple turnover GTP hydrolysis, fold decrease against wild-type Rag GTPases (fold decrease) [7]	kcat/KM of GATOR1[Depdc5(Y775A)]-stimulated multiple turnover GTP hydrolysis, fold decrease against wild-type Rag GTPases (fold decrease) [8]	Substance
8	8	64	0.00015	–	–	–	–	–	–	–	GATOR1[Depdc5(Y775A, R1407D)] (from UniProt O75140 1-1603; Q8WTW4 1-380; Q12980 1-569) (complex)
–	–	–	0.000267	0.00183	80	22	7	2	7	4	GATOR1[Depdc5(Y775A)] (from UniProt O75140 1-1603; Q8WTW4 1-380; Q12980 1-569) (complex)
